Target: T1, Staphylococcus aureus protein A (SpA), commercial wildtype (Staphylococcus aureus, UniProt A0A0H3K686 37-477, limits assumed)
T1 construct: also called wildtype SpA; antigen
Assay: Bio-Layer Interferometry (ForteBio Octet Red 96), 20 nM antigen; BLI, 20 nM antigen

T1 sequence (A0A0H3K686 37-477 limits assumed): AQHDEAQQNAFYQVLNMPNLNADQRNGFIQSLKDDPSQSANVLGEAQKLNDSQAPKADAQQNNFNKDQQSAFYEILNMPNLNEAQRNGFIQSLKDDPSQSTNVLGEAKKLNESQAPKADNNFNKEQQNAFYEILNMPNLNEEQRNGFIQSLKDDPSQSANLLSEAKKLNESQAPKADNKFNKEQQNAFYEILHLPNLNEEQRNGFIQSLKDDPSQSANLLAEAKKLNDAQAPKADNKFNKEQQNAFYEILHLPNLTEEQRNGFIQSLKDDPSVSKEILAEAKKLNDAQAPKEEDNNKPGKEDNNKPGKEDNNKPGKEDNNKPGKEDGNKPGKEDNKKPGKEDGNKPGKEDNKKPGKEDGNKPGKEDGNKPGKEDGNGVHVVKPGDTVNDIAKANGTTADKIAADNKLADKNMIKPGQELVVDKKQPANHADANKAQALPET

Row | Binder | Kd [pM]
1 | PA32-G3 Ab (antibody, human IgG3, kappa, Human IgG3) heavy: EVQLVETGGGLAQPGGSLRLSCAASGFIFSDYYMDWVRQAPGKGPEWVASIKADGSETHYVDSVKGRFTISRDNAKNSLYLQMNSLRVEDTAVYYCGRDPGRRFDYWGQGTLVTVSSASTKGPSVFPLAPCSRSTSGGTAALGCLVKDYFPEPVTVSWNSGALTSGVHTFPAVLQSSGLYSLSSVVTVPSSSLGTQTYTCNVNHKPSNTKVDKRVELKTPLGDTTHTCPRCPEPKSCDTPPPCPRCPEPKSCDTPPPCPRCPEPKSCDTPPPCPRCPAPELLGGPSVFLFPPKPKDTLMISRTPEVTCVVVDVSHEDPEVQFKWYVDGVEVHNAKTKPREEQYNSTFRVVSVLTVLHQDWLNGKEYKCKVSNKALPAPIEKTISKTKGQPREPQVYTLPPSREEMTKNQVSLTCLVKGFYPSDIAVEWESSGQPENNYNTTPPMLDSDGSFFLYSKLTVDKSRWQQGNIFSCSVMHEALHNRFTQKSLSLSPGK light: not shown | < 1
2 | PA15-G3 Ab (antibody, human IgG3, kappa, Human IgG3) heavy: EVQLVETGGGLVRPGGSLRLSCAASGLTFSTFAMNWVRQAPGKGLEWVSSISGSGGSTYYADSVKGRFTISRDNAKNTVYLQMNSLRAEDTAVYYCARDFNWDSGTMDLWGQGTTVTVSPASTKGPSVFPLAPCSRSTSGGTAALGCLVKDYFPEPVTVSWNSGALTSGVHTFPAVLQSSGLYSLSSVVTVPSSSLGTQTYTCNVNHKPSNTKVDKRVELKTPLGDTTHTCPRCPEPKSCDTPPPCPRCPEPKSCDTPPPCPRCPEPKSCDTPPPCPRCPAPELLGGPSVFLFPPKPKDTLMISRTPEVTCVVVDVSHEDPEVQFKWYVDGVEVHNAKTKPREEQYNSTFRVVSVLTVLHQDWLNGKEYKCKVSNKALPAPIEKTISKTKGQPREPQVYTLPPSREEMTKNQVSLTCLVKGFYPSDIAVEWESSGQPENNYNTTPPMLDSDGSFFLYSKLTVDKSRWQQGNIFSCSVMHEALHNRFTQKSLSLSPGK light: not shown | < 1
3 | PA21-G3 Ab (antibody, human IgG3, kappa, Human IgG3) heavy: EVQLVESGGGVVQPGGSLRLSCAASGFTFSSYGMHWVRQAPGKGLEWVSGISGDAGSTYYADSVKGRFTISRDNSKNTLYLQMNSLRAEDMAVYYCARVMNYYGPGSAFDYWGQGTLVTVSSASTKGPSVFPLAPCSRSTSGGTAALGCLVKDYFPEPVTVSWNSGALTSGVHTFPAVLQSSGLYSLSSVVTVPSSSLGTQTYTCNVNHKPSNTKVDKRVELKTPLGDTTHTCPRCPEPKSCDTPPPCPRCPEPKSCDTPPPCPRCPEPKSCDTPPPCPRCPAPELLGGPSVFLFPPKPKDTLMISRTPEVTCVVVDVSHEDPEVQFKWYVDGVEVHNAKTKPREEQYNSTFRVVSVLTVLHQDWLNGKEYKCKVSNKALPAPIEKTISKTKGQPREPQVYTLPPSREEMTKNQVSLTCLVKGFYPSDIAVEWESSGQPENNYNTTPPMLDSDGSFFLYSKLTVDKSRWQQGNIFSCSVMHEALHNRFTQKSLSLSPGK light: not shown | < 1
4 | PA7.2-G3 Ab (antibody, human IgG3, kappa, Human IgG3) heavy: EVQLVESRGGLVQPGGSLRLSCAASGFTFSNYAMSWVRQAPGKGLEWVSTISGSDGGTYYADSVKGRFTISRDNSGNTVYLQMNSLREDDTAVYYCARVGLSAPVTFFDFWGQGTLVTVSSASTKGPSVFPLAPCSRSTSGGTAALGCLVKDYFPEPVTVSWNSGALTSGVHTFPAVLQSSGLYSLSSVVTVPSSSLGTQTYTCNVNHKPSNTKVDKRVELKTPLGDTTHTCPRCPEPKSCDTPPPCPRCPEPKSCDTPPPCPRCPEPKSCDTPPPCPRCPAPELLGGPSVFLFPPKPKDTLMISRTPEVTCVVVDVSHEDPEVQFKWYVDGVEVHNAKTKPREEQYNSTFRVVSVLTVLHQDWLNGKEYKCKVSNKALPAPIEKTISKTKGQPREPQVYTLPPSREEMTKNQVSLTCLVKGFYPSDIAVEWESSGQPENNYNTTPPMLDSDGSFFLYSKLTVDKSRWQQGNIFSCSVMHEALHNRFTQKSLSLSPGK light: not shown | < 1
5 | PA27-G3 Ab (antibody, human IgG3, kappa, Human IgG3) heavy: QVQLVESGGGLVQPGGSLRLSCAASGFTFSKYGMSWVRQAPGKGLEWVSTISGSGFTTYYADSVKGRFTISRDDFKNTLYLQMNSLRAEDTAVYYCAKDGWDYEDFFGSWGQGTLVTVSSASTKGPSVFPLAPCSRSTSGGTAALGCLVKDYFPEPVTVSWNSGALTSGVHTFPAVLQSSGLYSLSSVVTVPSSSLGTQTYTCNVNHKPSNTKVDKRVELKTPLGDTTHTCPRCPEPKSCDTPPPCPRCPEPKSCDTPPPCPRCPEPKSCDTPPPCPRCPAPELLGGPSVFLFPPKPKDTLMISRTPEVTCVVVDVSHEDPEVQFKWYVDGVEVHNAKTKPREEQYNSTFRVVSVLTVLHQDWLNGKEYKCKVSNKALPAPIEKTISKTKGQPREPQVYTLPPSREEMTKNQVSLTCLVKGFYPSDIAVEWESSGQPENNYNTTPPMLDSDGSFFLYSKLTVDKSRWQQGNIFSCSVMHEALHNRFTQKSLSLSPGK light: DIQMTQSPSSLSASVGDRVTITCRASQSISSYLNWYQQKPGKAPKLLIYAASSLQSGVPSRFSGSGSGTEFTLTITNLQPEDFGTYYCQQSYAFPYTFGQGTRLEIKRTVAAPSVFIFPPSDEQLKSGTASVVCLLNNFYPREAKVQWKVDNALQSGNSQESVTEQDSKDSTYSLSSTLTLSKADYEKHKVYACEVTHQGLSSPVTKSFNRGEC | < 1
6 | PA37-G3 Ab (antibody, human IgG3, kappa, Human IgG3) heavy: EVQLLESGGGLVQPGGSRRLSCATSGLSFSSYAMNWVRQAPGKGLEWVSAISGSGDITHYADSVKGRLTISRDNSKNTVYLQMNSLRGEDTAVYYCAKGPWLAPGGWFDPWGQGTLVTVSSASTKGPSVFPLAPCSRSTSGGTAALGCLVKDYFPEPVTVSWNSGALTSGVHTFPAVLQSSGLYSLSSVVTVPSSSLGTQTYTCNVNHKPSNTKVDKRVELKTPLGDTTHTCPRCPEPKSCDTPPPCPRCPEPKSCDTPPPCPRCPEPKSCDTPPPCPRCPAPELLGGPSVFLFPPKPKDTLMISRTPEVTCVVVDVSHEDPEVQFKWYVDGVEVHNAKTKPREEQYNSTFRVVSVLTVLHQDWLNGKEYKCKVSNKALPAPIEKTISKTKGQPREPQVYTLPPSREEMTKNQVSLTCLVKGFYPSDIAVEWESSGQPENNYNTTPPMLDSDGSFFLYSKLTVDKSRWQQGNIFSCSVMHEALHNRFTQKSLSLSPGK light: not shown | < 1

Reference: patent US20210017257A1 (XBIOTECH, published 2021)
